Experimental data published in the supplement of paper PMC9732359.
± gives the uncertainty stated by the source.

Assay: protein stability index of a GFP-peptide fusion (yeast GPS) (PSI 1-4); higher = more stable; sorted into four equal gates, so the index is relative within each strain
Procedure, shortened: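 Yeast carrying a pooled library were grown to mid-log phase in leucine-free medium. Each library plasmid expresses Cherry and has a tiled 17-residue yeast protein peptide fused downstream of GFP. Cells were sorted into four equal gates by GFP/Cherry ratio, and plasmids from each gate were PCR-amplified, Illumina-sequenced and assigned to strains by barcode. Summing, across gates, the read frequency times the gate number gave each peptide's protein stability index.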

Row | Sequence | protein stability index (doa10∆) | protein stability index (pdr5∆) | protein stability index (san1∆) | protein stability index (ubr1∆)
1 | KLLKSLLLNYLELIGVL [MED7] | 1.86 ± 0.052 | 1.56 ± 0.052 | 1.14 ± 0.098 | 1.33 ± 0.058
2 | RSMDAEQLGHASKRHKP [RPP1] | 2.55 ± 0.056 | 2.87 ± 0.053 | 2.73 ± 0.054 | 2.74 ± 0.046
3 | SLNNSDSLISGVKQKIT [BRR2] | 2 ± 0.085 | 1.87 ± 0.056 | 1.61 ± 0.16 | 2.31 ± 0.049
4 | FAGSNNQPHQSQTPSFN [YOR098C/NUP1] | 2.68 ± 0.046 | 2.91 ± 0.036 | 2.73 ± 0.036 | 3.01 ± 0.031
5 | TLDYAERHGYIRGIVKQ [RPL2A] | 1.71 ± 0.06 | 1.71 ± 0.083 | 1.71 ± 0.079 | 1.8 ± 0.051
6 | HLPCTIEAEEAEEIGVE [RPN8] | 1.8 ± 0.078 | 1.74 ± 0.082 | 2.59 ± 0.11 | 2.89 ± 0.053
7 | DQITKMKDRLVEWNDQV [RPN9] | 3.35 ± 0.12 | 3.05 ± 0.099 | 3.43 ± 0.079 | 3.29 ± 0.079
8 | VEYKLTFVPTNSDKPRD [DIS3] | 1.21 ± 0.14 | 1.31 ± 0.094 | 1.19 ± 0.24 | 1.05 ± 0.11
9 | GAASNRTKFVRSLVREI [RPL36A] | 3.22 ± 0.27 | 2.59 ± 0.25 | 3.02 ± 0.13 | 3.25 ± 0.12
10 | PQDDDSQSKMMSSQISS [MTR3] | 3.14 ± 0.074 | 3.17 ± 0.071 | 3.15 ± 0.043 | 3.27 ± 0.053
11 | SFLEKPKFAIQDNHHIT [YMR129W/POM152] | 2.89 ± 0.074 | 2.81 ± 0.081 | 2.81 ± 0.051 | 2.76 ± 0.089
12 | KGRNNESNNKKYPIFTG [YDL088C/ASM4] | 2.87 ± 0.064 | 2.95 ± 0.063 | 2.67 ± 0.059 | 2.9 ± 0.049
13 | GSPSLTSPQYIPSPLSS [NUT1] | 2.56 ± 0.042 | 2.52 ± 0.033 | 2.65 ± 0.037 | 2.52 ± 0.028
14 | EVAIRDVNLDVRIHSIQ [IRR1] | 2.4 ± 0.06 | 2.1 ± 0.061 | 2.49 ± 0.059 | 1.68 ± 0.052
15 | QSDLEIITQYVFESLEI [ARP9] | 2.35 ± 0.067 | 3.12 ± 0.07 | 2.52 ± 0.082 | 3.01 ± 0.08
16 | TLPQPRLNKLNSNGIAM [SMD1] | 2.3 ± 0.11 | 2.27 ± 0.069 | 1.72 ± 0.094 | 2.15 ± 0.053
17 | PYNLNLFPNELYNVMGI [RPC31] | 2.12 ± 0.061 | 2.52 ± 0.092 | 2.71 ± 0.086 | 2.38 ± 0.12
18 | ENGDEDEDEDEDEDDDD [QCR6] | 2.01 ± 0.045 | 1.74 ± 0.038 | 1.92 ± 0.05 | 2.46 ± 0.043
19 | CCTKFFTMMTSEPLTLK [PCI8] | 2.03 ± 0.07 | 2.15 ± 0.057 | 1.98 ± 0.12 | 1.64 ± 0.053
20 | GPIKTPVGACATSVESV [FAS2] | 1.39 ± 0.073 | 2.13 ± 0.12 | 2.15 ± 0.11 | 2.22 ± 0.077
21 | PSNSTTTLHGPGFQLPN [SRB8] | 3 ± 0.1 | 2.85 ± 0.096 | 2.71 ± 0.066 | 2.91 ± 0.058
22 | NTLIPESSLTISLYFND [ECM29] | 1.92 ± 0.046 | 2.19 ± 0.052 | 1.99 ± 0.061 | 2.42 ± 0.043
23 | AQQQKRGGFGGRNRGRP [RPS2] | 3.32 ± 0.17 | 3.26 ± 0.13 | 3.31 ± 0.069 | 3.51 ± 0.15
24 | GFGLVYNSVAEAKKFEP [RPS24A] | 3.22 ± 0.1 | 3.47 ± 0.13 | 2.87 ± 0.1 | 2.8 ± 0.14
25 | NAFRKEELLLKDLEIRK [GAL11] | – | 3.09 ± 0.098 | 3.18 ± 0.079 | 3.03 ± 0.13
26 | TKDKAKKIREIYRYDEM [BRR2] | 2.58 ± 0.14 | 2.71 ± 0.1 | 2.46 ± 0.14 | 2.89 ± 0.059

Row | Sequence | protein stability index (doa10∆) | protein stability index (pdr5∆) | protein stability index (san1∆) | protein stability index (ubr1∆)
27 | TKPNVLNDPSLKIQFIL [SIN4] | 2.03 ± 0.043 | 2.36 ± 0.055 | 2.57 ± 0.049 | 2.538 ± 0.025
28 | NSEKYYDEDPYGFEDES [RPB2] | 3.47 ± 0.18 | 3.32 ± 0.079 | 3.27 ± 0.066 | 3.25 ± 0.13
29 | MRELGLIQSTEFPSITS [YOR098C/NUP1] | 3.12 ± 0.1 | 3.29 ± 0.092 | 2.21 ± 0.12 | 3.17 ± 0.078
30 | IPSKNTPDASKPSFSFG [YLR335W/NUP2] | 2.51 ± 0.15 | 3.14 ± 0.23 | 2.44 ± 0.2 | 2.78 ± 0.085
31 | REIDALKKQLHVSHEAM [YIL149C/MLP2] | 2.88 ± 0.05 | 2.97 ± 0.047 | 2.91 ± 0.048 | 2.82 ± 0.049
32 | ETNAKPFSFSSATSTTE [YLR335W/NUP2] | 2.18 ± 0.056 | 2.4 ± 0.053 | 2.35 ± 0.053 | 2.26 ± 0.035
33 | DEEASYKLGKVKKVQLG [RPS4A] | 2.96 ± 0.1 | 3.1 ± 0.069 | 2.9 ± 0.063 | 2.98 ± 0.061
34 | KTQLGSTMTEPVKQSFI [GAL11] | 2.81 ± 0.051 | 2.9 ± 0.06 | 2.56 ± 0.053 | 2.85 ± 0.037
35 | SSHLSDNDFIINDFKKI [POP5] | 3.06 ± 0.077 | 2.73 ± 0.067 | 2.75 ± 0.055 | 2.74 ± 0.036
36 | LKLPADATTWRYSMSEQ [IRR1] | 2.68 ± 0.071 | 2.65 ± 0.058 | 2.69 ± 0.065 | 2.5 ± 0.059
37 | PSRTRETATSERNASEV [GRR1] | 3.32 ± 0.15 | 3 ± 0.12 | 2.86 ± 0.091 | 2.84 ± 0.14
38 | SKGSFINIAQMSACVGQ [RPO21] | 1.44 ± 0.059 | 1.61 ± 0.053 | 1.3 ± 0.082 | 1.67 ± 0.051
39 | VHCRISCQIAQPYEDRP [RRP45] | 1.63 ± 0.064 | 2.12 ± 0.12 | 1.52 ± 0.22 | 1.92 ± 0.077
40 | AMTAAEHGLHAPAYAWS [CYT1] | 3.16 ± 0.13 | 3.31 ± 0.097 | 2.8 ± 0.13 | 3.27 ± 0.064
41 | TIEHAADITDGNNTELT [YCG1] | 3.29 ± 0.081 | 3.46 ± 0.082 | 3.33 ± 0.078 | 3.31 ± 0.069
42 | LQILAMLLLNIFISSDH [YMR129W/POM152] | 1.72 ± 0.058 | 1.36 ± 0.061 | 1.35 ± 0.08 | 1.13 ± 0.05
43 | SRPLKKVKILEQIDENW [SWI3] | 2.94 ± 0.077 | 3.11 ± 0.067 | 2.82 ± 0.072 | 2.99 ± 0.044
44 | EITQQEKGLNELSIRDV [SMC4] | 1.75 ± 0.11 | 2.64 ± 0.076 | 2.74 ± 0.089 | 1.85 ± 0.087
45 | NNANVLGGEINDNEDDD [BRR2] | 3.3 ± 0.095 | 3.2 ± 0.082 | 3.3 ± 0.072 | 2.98 ± 0.061
46 | PLSTYNKNGNAVCSTAT [PGD1] | 2.37 ± 0.096 | 2.63 ± 0.075 | 2.37 ± 0.078 | 2.72 ± 0.088
47 | DNDGFSFLMRQFTRFFL [ECM29] | 1.63 ± 0.047 | 2.19 ± 0.059 | 1.87 ± 0.075 | 2.43 ± 0.047
48 | LCQINKCSTRGLSTDHT [YML103C/NUP188] | – | 2.47 ± 0.23 | – | 3.13 ± 0.18
49 | TSSQKEPFFLVTKITDM [SRB8] | 2.36 ± 0.059 | 2.72 ± 0.071 | 2.52 ± 0.054 | 2.62 ± 0.054
50 | KRLGPKRANNIRKFFGL [RPS6A] | 3.52 ± 0.077 | 3.56 ± 0.071 | 3.25 ± 0.038 | 3.46 ± 0.045
51 | EIEIEGVMSLLQKSSKS [YAR002W/NUP60] | 2.99 ± 0.11 | 3.05 ± 0.16 | 3.26 ± 0.09 | 3.25 ± 0.072
52 | IQLIKILNSHFDALRSL [YJL041W/NSP1] | 2.54 ± 0.047 | 2.4 ± 0.039 | 2.95 ± 0.033 | 2.58 ± 0.035
